According to PMC3535077:

Biological target: His6-tagged monovalent streptavidin (UniProt P22629)
Assay: pull-down

percent of the Dicer sample retained on the Ni column with His6-streptavidin: 60%
Substance: C-terminal AviTag Dicer, biotinylated (from UniProt Q9UPY3 1-1922) (enzyme)
